First the molecules themselves.
B1: Tumor protein 63, residues 545 to 610; numbered along this chain, Q9H3D4 (parent)
chain: TDCSIVSFLARLGCSSCLDYFTTQGLTTIYQIEHYSMDDLASLKIPEQFRHAIWKGILDHRQLHEF

± gives the uncertainty stated by the source.

This data set covers variants of B1. Put plainly: abundance fitness (aPCA) (normalised: wild type 0, dead -1); higher = more abundant; growth selection in yeast, the domain comes from the species named. Particulars: Homo sapiens.
In the case of TDCSIVSFLARLGCSSCLDYFTTQGLTTIYQIIHYSMDDLASLKIPEQFRHAIWKGILDHRQLHEF [E33I], the abundance fitness is -0.139 ± 0.069.

For the variant TDCSIVSFLARLGCSSCLDYFTTQGLTTIYQICHYSMDDLASLKIPEQFRHAIWKGILDHRQLHEF [E33C], the abundance fitness was -0.05 ± 0.036.

With TDCSIVSFLARLGCSSCLDYFTTQGLTTIYQIHHYSMDDLASLKIPEQFRHAIWKGILDHRQLHEF [E33H], the abundance fitness was -0.039 ± 0.044. Turning to TDCSIVSFLARLGCSSCLDYFTTQGLTTIYQINHYSMDDLASLKIPEQFRHAIWKGILDHRQLHEF [E33N], the abundance fitness was -0.117 ± 0.041. For the variant TDCSIVSFLARLGCSSCLDYFTTQGLTTIYQIGHYSMDDLASLKIPEQFRHAIWKGILDHRQLHEF [E33G], the abundance fitness is -0.074 ± 0.019. On to TDCSIVSFLARLGCSSCLDYFTTQGLTTIYQIYHYSMDDLASLKIPEQFRHAIWKGILDHRQLHEF [E33Y], for which the abundance fitness was -0.098 ± 0.064. Take TDCSIVSFLARLGCSSCLDYFTTQGLTTIYQILHYSMDDLASLKIPEQFRHAIWKGILDHRQLHEF [E33L]: the abundance fitness was -0.06 ± 0.027.

For the variant TDCSIVSFLARLGCSSCLDYFTTQGLTTIYQIAHYSMDDLASLKIPEQFRHAIWKGILDHRQLHEF [E33A], the abundance fitness was -0.042 ± 0.029. With TDCSIVSFLARLGCSSCLDYFTTQGLTTIYQIKHYSMDDLASLKIPEQFRHAIWKGILDHRQLHEF [E33K], the abundance fitness was -0.112 ± 0.039.

Regarding TDCSIVSFLARLGCSSCLDYFTTQGLTTIYQIPHYSMDDLASLKIPEQFRHAIWKGILDHRQLHEF [E33P], the abundance fitness is -0.772 ± 0.082. As to TDCSIVSFLARLGCSSCLDYFTTQGLTTIYQIDHYSMDDLASLKIPEQFRHAIWKGILDHRQLHEF [E33D], the abundance fitness was -0.026 ± 0.068. Turning to TDCSIVSFLARLGCSSCLDYFTTQGLTTIYQISHYSMDDLASLKIPEQFRHAIWKGILDHRQLHEF [E33S], the abundance fitness is -0.052 ± 0.036. As for TDCSIVSFLARLGCSSCLDYFTTQGLTTIYQITHYSMDDLASLKIPEQFRHAIWKGILDHRQLHEF [E33T], the abundance fitness was -0.047 ± 0.045. To TDCSIVSFLARLGCSSCLDYFTTQGLTTIYQIFHYSMDDLASLKIPEQFRHAIWKGILDHRQLHEF [E33F] belongs -0.06 ± 0.045; to TDCSIVSFLARLGCSSCLDYFTTQGLTTIYQIQHYSMDDLASLKIPEQFRHAIWKGILDHRQLHEF [E33Q], 0.013 ± 0.049. For TDCSIVSFLARLGCSSCLDYFTTQGLTTIYQIWHYSMDDLASLKIPEQFRHAIWKGILDHRQLHEF [E33W], the abundance fitness was -0.046 ± 0.03. On to TDCSIVSFLARLGCSSCLDYFTTQGLTTIQQIEHYSMDDLASLKIPEQFRHAIWKGILDHRQLHEF [Y30Q], for which the abundance fitness is 0.029 ± 0.041. The result for TDCSIVSFLARLGCSSCLDYFTTQGLTTITQIEHYSMDDLASLKIPEQFRHAIWKGILDHRQLHEF [Y30T] reads -0.001 ± 0.034; that for TDCSIVSFLARLGCSSCLDYFTTQGLTTIVQIEHYSMDDLASLKIPEQFRHAIWKGILDHRQLHEF [Y30V], -0.034 ± 0.025; that for TDCSIVSFLARLGCSSCLDYFTTQGLTTIWQIEHYSMDDLASLKIPEQFRHAIWKGILDHRQLHEF [Y30W], -0.06 ± 0.044. On to TDCSIVSFLARLGCSSCLDYFTTQGLTTINQIEHYSMDDLASLKIPEQFRHAIWKGILDHRQLHEF [Y30N], for which the abundance fitness is -0.046 ± 0.068. With TDCSIVSFLARLGCSSCLDYFTTQGLTTIPQIEHYSMDDLASLKIPEQFRHAIWKGILDHRQLHEF [Y30P], the abundance fitness worked out at 0.007 ± 0.034. In the case of TDCSIVSFLARLGCSSCLDYFTTQGLTTIRQIEHYSMDDLASLKIPEQFRHAIWKGILDHRQLHEF [Y30R], the abundance fitness stood at 0.008 ± 0.024. For TDCSIVSFLARLGCSSCLDYFTTQGLTTISQIEHYSMDDLASLKIPEQFRHAIWKGILDHRQLHEF [Y30S], the abundance fitness is 0.038 ± 0.03. With TDCSIVSFLARLGCSSCLDYFTTQGLTTIYQIENYSMDDLASLKIPEQFRHAIWKGILDHRQLHEF [H34N], the abundance fitness turned out to be 0.02 ± 0.029.

On to TDCSIVSFLARLGCSSCLDYFTTQGLTTIYQIEIYSMDDLASLKIPEQFRHAIWKGILDHRQLHEF [H34I], for which the abundance fitness was -0.372 ± 0.039. For TDCSIVSFLARLGCSSCLDYFTTQGLTTIYQIEEYSMDDLASLKIPEQFRHAIWKGILDHRQLHEF [H34E], the abundance fitness was -0.007 ± 0.026. As for TDCSIVSFLARLGCSSCLDYFTTQGLTTIYQIEQYSMDDLASLKIPEQFRHAIWKGILDHRQLHEF [H34Q], the abundance fitness was -0.041 ± 0.032. As to TDCSIVSFLARLGCSSCLDYFTTQGLTTIYQIEVYSMDDLASLKIPEQFRHAIWKGILDHRQLHEF [H34V], the abundance fitness was -0.27 ± 0.027. Take TDCSIVSFLARLGCSSCLDYFTTQGLTTIYQIEKYSMDDLASLKIPEQFRHAIWKGILDHRQLHEF [H34K]: the abundance fitness is -0.018 ± 0.04. Turning to TDCSIVSFLARLGCSSCLDYFTTQGLTTIYQIEAYSMDDLASLKIPEQFRHAIWKGILDHRQLHEF [H34A], the abundance fitness was -0.037 ± 0.024. Regarding TDCSIVSFLARLGCSSCLDYFTTQGLTTIYQIELYSMDDLASLKIPEQFRHAIWKGILDHRQLHEF [H34L], the abundance fitness is -0.106 ± 0.023. For the variant TDCSIVSFLARLGCSSCLDYFTTQGLTTIYQIEWYSMDDLASLKIPEQFRHAIWKGILDHRQLHEF [H34W], the abundance fitness is -0.06 ± 0.025.

As for TDCSIVSFLARLGCSSCLDYFTTQGLTTIYQIEYYSMDDLASLKIPEQFRHAIWKGILDHRQLHEF [H34Y], the abundance fitness is -0.08 ± 0.029. The result for TDCSIVSFLARLGCSSCLDYFTTQGLTTIYQIEFYSMDDLASLKIPEQFRHAIWKGILDHRQLHEF [H34F] reads -0.102 ± 0.033.

For TDCSIVSFLARLGCSSCLDYFTTQGLTTIYQIEMYSMDDLASLKIPEQFRHAIWKGILDHRQLHEF [H34M], the abundance fitness was -0.044 ± 0.027. As for TDCSIVSFLARLGCSSCLDYFTTQGLTTIYQIESYSMDDLASLKIPEQFRHAIWKGILDHRQLHEF [H34S], the abundance fitness was -0.004 ± 0.025. Consider TDCSIVSFLARLGCSSCLDYFTTQGLTTIYQIETYSMDDLASLKIPEQFRHAIWKGILDHRQLHEF [H34T], for which the abundance fitness is -0.084 ± 0.031. To TDCSIVSFLARLGCSSCLDYFTTQGLTTIYQIEPYSMDDLASLKIPEQFRHAIWKGILDHRQLHEF [H34P] belongs -0.188 ± 0.026.

Regarding TDCSIVSFLARLGCSSCLDYFTTQGLTTIYQIEGYSMDDLASLKIPEQFRHAIWKGILDHRQLHEF [H34G], the abundance fitness was -0.014 ± 0.018.

Take TDCSIVSFLARLGCSSCLDYFTTQGLTTIYQIECYSMDDLASLKIPEQFRHAIWKGILDHRQLHEF [H34C]: the abundance fitness is -0.141 ± 0.049.

For the origin of these results see the Human Domainome abundance scans (Beltran et al. 2025).
